The values that follow come from US20260234242A1 (HAINAN SIMCERE ZAIMING PHARMACEUTICAL, published 2026).

For test [1], the target named is T1, his-tagged human CDH6 extracellular region protein (hCDH6 ECD-his) (human, UniProt P55285 19-615).
T1 construct: also called Human CDH6-his; hCDH6-his; not shown: his tag
T1 sequence: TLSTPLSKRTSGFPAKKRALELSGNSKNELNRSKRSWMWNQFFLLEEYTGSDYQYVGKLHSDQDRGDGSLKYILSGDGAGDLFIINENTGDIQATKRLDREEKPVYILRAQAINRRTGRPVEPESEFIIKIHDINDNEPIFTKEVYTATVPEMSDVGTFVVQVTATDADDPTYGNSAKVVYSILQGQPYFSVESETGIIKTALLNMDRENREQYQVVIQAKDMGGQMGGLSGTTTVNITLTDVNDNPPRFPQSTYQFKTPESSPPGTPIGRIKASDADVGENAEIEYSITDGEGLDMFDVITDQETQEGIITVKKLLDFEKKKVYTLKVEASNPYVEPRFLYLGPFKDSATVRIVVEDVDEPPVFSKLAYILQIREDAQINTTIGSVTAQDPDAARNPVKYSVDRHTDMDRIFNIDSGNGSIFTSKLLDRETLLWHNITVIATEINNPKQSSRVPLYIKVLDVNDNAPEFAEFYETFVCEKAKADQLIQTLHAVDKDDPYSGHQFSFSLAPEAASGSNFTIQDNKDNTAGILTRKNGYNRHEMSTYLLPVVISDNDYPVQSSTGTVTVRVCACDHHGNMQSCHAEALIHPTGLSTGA
As to the kind of experiment: ELISA, coated antigen. On the procedure:
Human CDH6 protein (hCDH6 ECD-his, conventionally synthesized), monkey CDH6 protein (cynoCDH6 ECD-his, conventionally synthesized; the cynoCDH6 ECD sequence was derived from Uniprot #A0A2K5TW62 (19-615)), and murine CDH6 protein (mCDH6 ECD-his, conventionally synthesized; the mCDH6 ECD sequence was derived from Uniprot #P97326 (19-615)) were diluted with PBS to a final concentration of 1 μg/mL, and added to a 96-well ELISA plate at 100 μL/well. The plate was incubated at 4° C. overnight. The next day, the plate was washed 3 times with a plate washing solution (PBS+0.01% (v/v) Tween 20), and a blocking buffer (PBS+0.01% (v/v) Tween 20+2% (w/w) BSA) was added for blocking at room temperature for 2 h. The blocking buffer was discarded, and the plate was washed 3 times. The chimeric antibodies were diluted with 1% BSA+PBS (purchased from Cytiva, Cat. No. SH30264.01) and added to the 96-well plate at 50 μL/well. After incubation at 37° C. for 2 h, the plate was washed 3 times with a plate washing solution. […] The plate was incubated at 37° C. for 1 h and then washed 5 times with a plate washing solution. A TMB substrate (purchased from Seracare, Cat. No. 5120-0077) was added at 50 μL/well and incubated at room temperature for 10 min, then a stop solution (1.0 N HCl) was added at 50 μL/well. OD450 nm values were read using a microplate reader (Biotek). Analysis was performed by the GraphPad Prism software, data were fitted, and EC50 values were calculated. The chimeric antibodies tested all had strong binding to the human CDH6 protein, the monkey CDH6 protein, and the murine CDH6 protein.
(§1) According to the above sequences, heavy chain (HC) and light chain (LC) plasmids were constructed (the nucleic acid sequences encoding the VH and VL of the antibodies were recombined into an expression vector carrying a signal peptide (SEQ ID NO: 132, […]) and a heavy chain constant region/light chain constant region sequence to obtain recombinant plasmids expressing VH—CH1-Fc/VL-CL).
A general note: In an ELISA, binding on a coated surface is turned into a signal by an enzyme label.

For test [2], the target named is T2, human CDH6 on tumor cells (OVCAR3 cells, PA-1 cells) (human, UniProt P55285 54-790).
T2 sequence: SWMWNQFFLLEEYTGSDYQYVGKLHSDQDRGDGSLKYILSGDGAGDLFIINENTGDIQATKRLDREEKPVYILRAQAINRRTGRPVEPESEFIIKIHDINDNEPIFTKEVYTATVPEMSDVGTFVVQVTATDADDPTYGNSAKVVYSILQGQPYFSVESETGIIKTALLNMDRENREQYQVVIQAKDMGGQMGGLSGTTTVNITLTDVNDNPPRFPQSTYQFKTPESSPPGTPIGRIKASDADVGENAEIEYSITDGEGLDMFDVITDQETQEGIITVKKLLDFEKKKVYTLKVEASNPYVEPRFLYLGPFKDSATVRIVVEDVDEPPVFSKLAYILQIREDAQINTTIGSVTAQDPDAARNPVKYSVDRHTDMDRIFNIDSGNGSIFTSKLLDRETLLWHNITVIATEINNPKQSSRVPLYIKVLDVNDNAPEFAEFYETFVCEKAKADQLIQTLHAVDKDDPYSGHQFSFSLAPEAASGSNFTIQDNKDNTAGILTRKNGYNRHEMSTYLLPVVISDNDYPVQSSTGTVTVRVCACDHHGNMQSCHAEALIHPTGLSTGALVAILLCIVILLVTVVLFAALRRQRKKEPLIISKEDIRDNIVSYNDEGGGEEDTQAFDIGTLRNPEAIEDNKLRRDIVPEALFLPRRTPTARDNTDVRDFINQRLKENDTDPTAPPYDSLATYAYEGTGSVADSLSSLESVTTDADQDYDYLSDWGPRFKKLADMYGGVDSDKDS
Kind of test: FACS, OVCAR3 cells. Here is the method:
OVCAR3 cells with high expression of CDH6 and PA-1 cells with moderate expression of CDH6 were used to detect the binding activity of the antibodies to the cells. […] The cells were washed once with PBS, counted, resuspended to 2×10⁶ cells/mL in an FACS buffer (PBS+2% FBS), and then added to a 96-well plate at 50 μL/well. The chimeric antibodies were diluted with FACS buffer (PBS+2% FBS) and added to the 96-well plate at 50 μL/well, and the plate was incubated at 4° C. for 1 h. […] The dilution was added to the 96-well plate at 50 μL/well, and the plate was incubated at 4° C. for 1 h. After the plates were centrifuged and washed 2 times with PBS, the cells were resuspended in an FACS buffer. The mean fluorescence intensity (MFI) was measured using FACS Canton II (BD). Analysis was performed by the GraphPad Prism software, data were fitted, and EC50 values were calculated. The chimeric antibodies tested had strong binding to both OVCAR3 cells and PA-1 cells.
as §1, with “VH—CH1-Fc/VL-CL). According to the expression and purification methods in Example 2, the hCDH6-6 humanized antibodies were obtained, and the binding activity of the humanized antibodies was detected by ELISA and FACS (see 2.2 and 2.3 for the method).” for “VH—CH1-Fc/VL-CL).”
(In general: Flow cytometry measures light scatter and fluorescence of single cells or particles in a stream.)

B1: CHI-CDH6-6 (antibody, human IgG1, kappa, V domains shown)
VH: EVQLQQSGPELVKPGDSVKMSCKASGYTFTDYYMAWVRQSHRKSLEWIGYIFPNSGGTDYSQKFKGKATLTVDKSSSTVYMELHSLTSEDSAVYYCARELGADYGDYYAMDHWGQGTSVSVSS
VL: DIQMTQSPASLSASVGETVTITCRASENIDSYLAWYQQKQGKSPQLLVYSATLLADGVPSRFSGSGSGTQYSLKINSLKSEDVARYYCQHYYRTPPTFGSGTKLEIKR
notes: also called CHI-hCDH6-6; chimeric antibody of murine CDH6-6
Take B1: in test [1], the EC50 (commonly the midpoint of the concentration-response curve) came out at 28 pM and the “Max OD450” value was found to be 2.02 OD450. In test [2], the EC50 amounted to 680 pM and the “Max MFI” value came to 14100 MFI.

B2: hCDH6-6-H2L2 (antibody, V domains shown)
VH: EVQLVQSGAEVKKPGASVKVSCKASGYTFTDYYMAWVRQAPGQGLEWMGYIFPNSGGTDYSQKFKGRVTLTVDKSTSTVYMELSSLRSEDTAVYYCARELGADYGDYYAMDHWGQGTTVTVSS
VL: DIQMTQSPSSLSASVGDRVTITCRASENIDSYLAWYQQKPGKSPKLLVYSATLLADGVPSRFSGSGSGTDYTLTISSLQPEDFATYYCQHYYRTPPTFGQGTKLEIK
notes: Humanized
As to B2, in test [1], the concentration giving a half-maximal response (EC50) came out at 26 pM and the “Max OD450” value came to 1.97 OD450. In test [2], the concentration for a half-maximal effect (EC50) is 560 pM and the “Max MFI” value was found to be 14300 MFI.
